Reference: patent US12139520B2 (priority 2020, dated 2024)
Numbered stars: 1 amine (or outer) side, 2 acyl side, 3 side chain; on linkers, the order of the positions; unused ones are H or OH. Bridge positions count the residues as written; N and C are the ends. Square brackets hold non-standard residues; d marks the D form. Ends that are not written are not given here. * marks the point of attachment. C20 diacid = O=C(O)CCCCCCCCCCCCCCCCCCC(=O)*; γGlu = O=C(O)[C@H](CCC(=O)[*:2])N[*:1]; Hyp = O=C(O)[C@@H]1C[C@@H](O)CN1

What was measured:
hAM1R = hAM1R (human, UniProt Q16602); experiment: cell-based or functional assay
hAMY3R = target: T1, hAMY3R (human, UniProt P30988); experiment: cell-based or functional assay
T1 sequence 1: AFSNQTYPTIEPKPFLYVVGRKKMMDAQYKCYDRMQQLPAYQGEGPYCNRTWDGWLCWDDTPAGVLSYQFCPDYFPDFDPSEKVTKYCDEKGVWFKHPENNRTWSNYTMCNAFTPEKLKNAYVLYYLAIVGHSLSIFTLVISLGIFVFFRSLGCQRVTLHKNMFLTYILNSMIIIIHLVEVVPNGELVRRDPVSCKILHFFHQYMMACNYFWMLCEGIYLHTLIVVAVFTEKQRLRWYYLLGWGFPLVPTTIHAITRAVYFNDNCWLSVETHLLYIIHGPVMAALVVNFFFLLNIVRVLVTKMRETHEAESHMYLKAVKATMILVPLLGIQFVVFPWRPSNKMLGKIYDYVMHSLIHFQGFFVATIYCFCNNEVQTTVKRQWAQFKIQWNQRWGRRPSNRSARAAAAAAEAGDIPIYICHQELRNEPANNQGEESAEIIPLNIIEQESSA
T1 sequence 2: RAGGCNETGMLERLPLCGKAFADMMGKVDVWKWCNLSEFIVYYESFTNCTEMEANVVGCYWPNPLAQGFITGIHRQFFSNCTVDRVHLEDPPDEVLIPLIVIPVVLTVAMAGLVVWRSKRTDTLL

## GCRTGTCTVQRLAHQIYQFTDKFKDNVAPRSKISPQTM [SEQ ID NO: 215]
hAM1R
  hAM1R EC50 (cAMP): > 5000 nM
hAMY3R
  hAMY3R EC50 (cAMP): 0.161 nM

## GCRWGTCTVQRLAHQIYQFTDKDKDNVAPSSKISPQT[Hyp]-NH2 (disulfide 2-7 (inferred); ends not checked) [SEQ ID NO: 202]
hAM1R
  hAM1R EC50 (cAMP): > 5000 nM
hAMY3R
  hAMY3R EC50 (cAMP): 0.126 nM

## GCRTGTCTVQRLAHQIWQFTDKFKDNVAPRSKISPQT[Hyp]-NH2 (disulfide 2-7 (inferred); ends not checked) [SEQ ID NO: 213]
hAM1R
  hAM1R EC50 (cAMP): > 5000 nM
hAMY3R
  hAMY3R EC50 (cAMP): 0.153 nM

## GCRTGTCTVQRLAHQIYQFTDKDKDNVAPRTKVSPQG[Hyp]-NH2 (disulfide 2-7 (inferred); ends not checked) [SEQ ID NO: 216]
hAM1R
  hAM1R EC50 (cAMP): 2980 nM
hAMY3R
  hAMY3R EC50 (cAMP): 0.164 nM

## GCRIGTCTVQRLAHQIYQFTNKDKDNVAPRSKISPQT[Hyp]-NH2 (disulfide 2-7 (inferred); ends not checked) [SEQ ID NO: 198]
hAM1R
  hAM1R EC50 (cAMP): 3960 nM
hAMY3R
  hAMY3R EC50 (cAMP): 0.122 nM

## GCRTGTCTVQRLAHQIYQFTDKFKDNVAPRSKISPQF[Hyp]-NH2 (disulfide 2-7 (inferred); ends not checked) [SEQ ID NO: 211]
hAM1R
  hAM1R EC50 (cAMP): 2760 nM
hAMY3R
  hAMY3R EC50 (cAMP): 0.151 nM

## GCRTGTCTVQRLAHQIYQFTDKDKDNVAPRTNISPQGY [SEQ ID NO: 199]
hAM1R
  hAM1R EC50 (cAMP): 2980 nM
hAMY3R
  hAMY3R EC50 (cAMP): 0.124 nM

## GCRTGTCTVQRLAHQIYQFTDKDKDNVAPRTKVSPQGY [SEQ ID NO: 209]
hAM1R
  hAM1R EC50 (cAMP): 1020 nM
hAMY3R
  hAMY3R EC50 (cAMP): 0.136 nM

## GCRFGTCTVQRLAHQLYQFTDKDKDNVAPRSKISPQT[Hyp]-NH2 (disulfide 2-7 (inferred); ends not checked) [SEQ ID NO: 217]
hAM1R
  hAM1R EC50 (cAMP): > 5000 nM
hAMY3R
  hAMY3R EC50 (cAMP): 0.167 nM

## {C20 diacid-γGlu}-GCRFGTCTVQRLAHFLYQFTDKDKDNVAPRTNVGSNTY-NH2 (disulfide 2-7 (inferred); ends not checked) [SEQ ID NO: 208]
hAM1R
  hAM1R EC50 (cAMP): 242 nM
hAMY3R
  hAMY3R EC50 (cAMP): 0.133 nM

## {C20 diacid-γGlu}-KCNTATCTVQRLAHQITQFTDKDKDNVAPPTNVGSNG[Hyp]-NH2 (disulfide 2-7 (inferred); ends not checked) [SEQ ID NO: 22]
hAM1R
  hAM1R EC50 (cAMP): > 5000 nM
hAMY3R
  hAMY3R EC50 (cAMP): 0.008 nM

## KCNTATCTVQRLAHQAYQFTDKDKDNVAPPTNVGSNG[Hyp]-NH2 (disulfide 2-7 (inferred); ends not checked) [SEQ ID NO: 210]
hAM1R
  hAM1R EC50 (cAMP): > 5000 nM
hAMY3R
  hAMY3R EC50 (cAMP): 0.137 nM

## GCRTGTCTVQRLAHQIYQFTDKFKDNVAPRSKISPQP[Hyp] (ends and bridges not checked) [SEQ ID NO: 203]
hAM1R
  hAM1R EC50 (cAMP): > 5000 nM
hAMY3R
  hAMY3R EC50 (cAMP): 0.127 nM

## GCRTGTCTVQRLAHQIYQFTDKFKDNVAPRSKISPQH[Hyp]-NH2 (disulfide 2-7 (inferred); ends not checked) [SEQ ID NO: 201]
hAM1R
  hAM1R EC50 (cAMP): 4880 nM
hAMY3R
  hAMY3R EC50 (cAMP): 0.126 nM

## GCRTGTCTVQRLAHQIYQFTDKFKDNVAPRSKISPQK[Hyp]-NH2 (disulfide 2-7 (inferred); ends not checked) [SEQ ID NO: 206]
hAM1R
  hAM1R EC50 (cAMP): > 5000 nM
hAMY3R
  hAMY3R EC50 (cAMP): 0.13 nM

## GCRTGTCTVQRLAHQIYQFTDKDKDNVAPRTKISPNG[Hyp]-NH2 (disulfide 2-7 (inferred); ends not checked) [SEQ ID NO: 197]
hAM1R
  hAM1R EC50 (cAMP): 2980 nM
hAMY3R
  hAMY3R EC50 (cAMP): 0.12 nM

## GCRFGTCTVQRLAHQIYQFTDKFKDNVAPRSKISPQT[Hyp]-NH2 (disulfide 2-7 (inferred); ends not checked) [SEQ ID NO: 212]
hAM1R
  hAM1R EC50 (cAMP): > 5000 nM
hAMY3R
  hAMY3R EC50 (cAMP): 0.153 nM

## KCRMGTCTVQRLAHQIYQFTDKDKDNVAPRSKISPQT[Hyp]-NH2 (disulfide 2-7 (inferred); ends not checked) [SEQ ID NO: 194]
hAM1R
  hAM1R EC50 (cAMP): 3530 nM
hAMY3R
  hAMY3R EC50 (cAMP): 0.112 nM

## KCNTATCATQRLANFLVHSSNNFGAILPSTKIGSNGY [SEQ ID NO: 207]
hAM1R
  hAM1R EC50 (cAMP): > 5000 nM
hAMY3R
  hAMY3R EC50 (cAMP): 0.131 nM

## KCNTATCTVQRLAHQIYQTDKDKDNVAPPTNVGSNG[Hyp]-NH2 (disulfide 2-7 (inferred); ends not checked) [SEQ ID NO: 195]
hAM1R
  hAM1R EC50 (cAMP): > 5000 nM
hAMY3R
  hAMY3R EC50 (cAMP): 0.112 nM

## GCRTGTCTVQRLAHQIAQFTDKFKDNVAPRSKISPQT[Hyp]-NH2 (disulfide 2-7 (inferred); ends not checked) [SEQ ID NO: 196]
hAM1R
  hAM1R EC50 (cAMP): > 5000 nM
hAMY3R
  hAMY3R EC50 (cAMP): 0.114 nM

## KCRFGTCTVQRLAHQIYQFTDKDKDNVAPRSKISPQT[Hyp]-NH2 (disulfide 2-7 (inferred); ends not checked) [SEQ ID NO: 205]
hAM1R
  hAM1R EC50 (cAMP): 3230 nM
hAMY3R
  hAMY3R EC50 (cAMP): 0.13 nM

## GCRTGTCTVQRLAHQIYQFTDKDKDNVAPRTNISPQG[Hyp]-NH2 (disulfide 2-7 (inferred); ends not checked) [SEQ ID NO: 214]
hAM1R
  hAM1R EC50 (cAMP): 2980 nM
hAMY3R
  hAMY3R EC50 (cAMP): 0.157 nM

## GCRTGTCTVQRLAHQIYQFTDKDKDNVAPRSKVSPNG[Hyp]-NH2 (disulfide 2-7 (inferred); ends not checked) [SEQ ID NO: 204]
hAM1R
  hAM1R EC50 (cAMP): 2980 nM
hAMY3R
  hAMY3R EC50 (cAMP): 0.129 nM

## {C20 diacid-γGlu}-KCNTATCTVQRLANQIYQFTDKDKDNVAPPTNVGSNG[Hyp]-NH2 (disulfide 2-7 (inferred); ends not checked) [SEQ ID NO: 21]
hAM1R
  hAM1R EC50 (cAMP): > 5000 nM
hAMY3R
  hAMY3R EC50 (cAMP): 0.008 nM

## KCNTATCTVQRLAHQIYQFTDKDKDNVAPRTKVGSNG[Hyp]-NH2 (disulfide 2-7 (inferred); ends not checked) [SEQ ID NO: 20]
hAM1R
  hAM1R EC50 (cAMP): > 5000 nM
hAMY3R
  hAMY3R EC50 (cAMP): 0.008 nM

## {C20 diacid-γGlu}-GCRFGTCTVQRLAHFLYQFTDKDKDNVAPRTNVGPQGY-NH2 (disulfide 2-7 (inferred); ends not checked) [SEQ ID NO: 200]
hAM1R
  hAM1R EC50 (cAMP): 38.2 nM
hAMY3R
  hAMY3R EC50 (cAMP): 0.126 nM
